US20150166643A1 (Alexion, published 2015)

Target: T1, human factor B (purified, Complement Technology A135) (human, UniProt P00751 26-764)
T1 construct: also called fB; human complement factor B
Assay: SPR (Biacore 3000), Fab captured on chip, soluble human factor B 3.1-100 nM
Description: Binding kinetics of TA106 Fab and variant S33A Fab (CLS016) were further characterized using Surface Plasmon Resonance (SPR) technology. In one exemplary experiment, both Fabs were captured on chips of a Biacore 3000 analyzer and samples of human factor B of different concentrations were flowed as the antigen over the surface to model soluble human factor B binding, using protocols recommended by the manufacturer and described previously in the instant disclosure. […] In another exemplary experiment, the affinities of both Fabs were also measured by reversing the orientation of the previous experiment. Specifically, human factor B was directly coupled to one flow cell of a CM5 chip. The second flow cell was used as a blank reference with no coupled ligand. CLS016 or TA106 Fab was then flowed on both flow cells. Concentrations between 0.19 to 25 nM were run with duplicates. The surface was regenerated between each cycle.

T1 sequence (P00751 26-764): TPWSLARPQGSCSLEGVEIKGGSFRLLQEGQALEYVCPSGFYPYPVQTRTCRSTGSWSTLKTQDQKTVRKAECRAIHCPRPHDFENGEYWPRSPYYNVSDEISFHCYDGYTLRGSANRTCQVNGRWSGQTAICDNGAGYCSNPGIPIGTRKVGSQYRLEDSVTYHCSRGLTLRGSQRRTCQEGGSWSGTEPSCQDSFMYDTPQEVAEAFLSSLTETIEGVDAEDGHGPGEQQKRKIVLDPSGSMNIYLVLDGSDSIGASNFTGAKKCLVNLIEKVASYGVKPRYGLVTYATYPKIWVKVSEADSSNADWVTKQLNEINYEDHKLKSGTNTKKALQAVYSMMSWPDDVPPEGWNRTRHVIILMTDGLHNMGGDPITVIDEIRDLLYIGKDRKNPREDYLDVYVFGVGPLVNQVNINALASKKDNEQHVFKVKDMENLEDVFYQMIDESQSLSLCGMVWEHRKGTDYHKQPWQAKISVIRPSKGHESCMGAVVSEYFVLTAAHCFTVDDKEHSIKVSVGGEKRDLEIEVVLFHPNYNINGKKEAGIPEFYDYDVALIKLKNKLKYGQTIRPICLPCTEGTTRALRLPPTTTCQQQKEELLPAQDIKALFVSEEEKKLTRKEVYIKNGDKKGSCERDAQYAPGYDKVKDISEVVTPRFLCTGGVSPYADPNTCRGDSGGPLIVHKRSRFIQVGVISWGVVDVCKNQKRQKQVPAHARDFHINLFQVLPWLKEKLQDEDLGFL

Kd: ~30.6 nM
B1: TA106 Fab (humaneered anti-factor B Fab, expressed in E. coli) (Fab, V domains shown)
VH: QVQLVQSGAEVKKPGASVKVSCKASGYSFTDYYMTWVRQAPGQGLEWMGWINPNSGGTKYAQKFQGRVTMTRDTSISTAYMELSRLRSDDTAVYYCARGYYANSAWFAYWGQGTLVTVSS
VL: DIVMTQSPDSLAVSLGERATINCKSSQSLLNSSTSKNYLAWYQQKPGQPPKLLIYWASTRESGVPDRFSGSGSGTDFTLTISSLQAEDVAVYYCKQVYNLPWTFGQGTKLEIKR
notes: Fab made in E. coli by Xoma, not glycosylated; also called Fab TA106; TA106 wild type Fab
